Experimental data reported in the DeepSol protein solubility set.

assay: soluble on expression in E. coli; label from the status in PepcDB or PDB records

| Sequence | soluble on expression in E. coli |
| --- | --- |
| MTSVLNSFWLGIKVPLRKAVYWLQYNLLKRKRNAFNILMAEETIDYIVKHECSVCRYGDGEIDMITCLKEGFDESRKSDFQTYDEKLAWRLKQILGNGSDEELNLIVCIPYVWKSHRSLSFTARRFIERSFVNNREMIFASIHPTRLYGDSYFTRFYIDARNKKKKGSYIQHCRQIWQGRDLCIIEGEQSRLGVGNDLFDNAQSIERILCPALDAFAKYDEIMKAACTVNKAKLVLIALGHTATVLAYDLAEVGYQAIDIGHIDIEYEWFLMRAPKKVPVPHKYVNEVPEGRQFSEERNKEYLSQIIYSVK | not soluble |
| MGSDKIHHHHHHMNIEGNIAIICITENGKKLALKINSLVNNCVIYQVKNKKSNLVVEETCVHTVQKKLSDFVGEIFSKFDYIVFIMATGIVVRSIAPYIISKFSDPAILVMDEKGKNVISLLSGHIGGANSLTQYISSLIDANPVITTATDINQKASLDMIAKKLNAHIDNFRESVKEVNSMLVNNKCVGLYVDEGYQVDTRGFKLIESKDELRDSFSNTYIEKLVVVSNKINCIEDIENLNLDNKFEHCYSTQKIIKVIPRDIVIGIGCRRNTDSELMYNSLEEFLNKQNIDIRAINTVGSIELKKDEKAIIELSKILKVPFKTFSVDEISKVDNLFDKSDFVKKNVGVYSVAEPVAYLLSKGNLLVEKHKYKGITFSVGRIKI | not soluble |
| REVADTAYDRTLLASARAIADGLYEKDGTLRADVPYVALDTFAYDSAGRIFYQVNDIHGRMISGYENLPAAPADTLRTDDYPALAKFYDGVYQGVDVRVVSLLQPVSEPSMSGMAEIRVAETEGARERMARS | not soluble |
| MGSDKIHHHHHHMAKAKTQFVCSNCGYSTPRYLGRCPNCGEWNTLTEEHFDTKPDRKSRVSFAGKSAKPQRLKEVSLTKTPRVKTKLKEFNRVLGGGVVPGSLVLIGGDPGIGKSTLLLQVSGQLAETGGSVLYVTGEESASQVKMRADRLAVSSEDFYLYPETDMSNIRSTIESTHPEFVVIDSVQTMQEPDMDSAIGSVSQIREITAELLQIAKTNGITIFIVGHVTKGGAIAGPKILEHMVDTVLYFEGDLHHTYRILRAVKNRFGSTNELGIFEMRTGGLYEVANPSEIFLEERLKDATGSAIVVSMEGTRPILVEVQALVTPTVFGNAKRTASGLDHNRVSLIMAVLEKRASLMLQNQDAYLKAAGGVKLDEPAIDLAIAVSVASSYRDQQTRPSDCFVGEVGLTGEIRRVNRIESRVGEAAKLGFKRIFIPKNNLQGWDIPTGIEVIGVATLKEALQLALQQPNY | not soluble |
| MKAVVQRVTRASVTVGGEQISAIGRGICVLLGISLEDTQKELEHMVRKILNLRVFEDESGKHWSKSVMDKQYEILCVSQFTLQCVLKGNKPDFHLAMPTEQAEGFYNSFLEQLRKTYRPELIKDGKFGAYMQVHIQNDGPVTIELESPAPGTATSDPKQLSKLEKQQQRKEKTRAKGPSESSKERNTPRKEDRSASSGAEGDVSSEREP | soluble |
| MNIWGPHIVQARRAVAIFCRGLLVLMPALSLLGLTAEAEPRSADDRQRIAAVTAPATGFTVAEPFEQLPGGAATVSGDLGRDAFSRPSANMSFERELDFHLGQALFDKLWVASPSSTKASDGLGPLYNARSCQACHIRDGRGQVSGGPGLVLRIGRVRGDGVLPDPLFGLQIQDSAVPGLRPEARIAVSQAETEVTLNGGEVAVLRKPRYRLDAAEGTLHAESTLSPRLAPQMIGLGLLEAIPEAEILARADPDDRDGDGISGRPNRVHDPETGQEALGRFGWKAGAASVLDQTAAAFASDIGISSPLRPAPWGDCTELQVECRAALHGDGDPRGAEIDGPALALTAFYSRNLAVPARRDVDDPDVLRGKRVFYGIGCPACHVPKHVTAQLSDQPEQSFQLIWPYTDLLLHDMGAGLADELPQGLASGREWRTAPLWGIGLTEQVSGQARFLHDGRARTLLEAVLWHGGEAAAQRDRVIALAPEDRAALIRFLESL | not soluble |
| MKRILVSGGAGFIGSHLCTRLVNEGHDVICLDNFFTGSKDNIKHLMGNHHFEVVRHDVTYPYSAEVDEIYNLACPASPIHYQHDPIQTAKTSVMGAINMLGLAMRLDAKILQASTSEVYGDPIIHPQPESYWGNVNPVGYRSCYDEGKRCAETLFMDYYRQNQTRIKIIRIFNTYGPRMLPNDGRVVSNFIIQALNNEDITIYGDGKQTRSFQYIDDLIEGMVRMMDTEDDFTGPINIGNPNEFPVLELAERVIRMTGSTSKIVFKPLPTDDPKQRQPDIKLAKEKLGWQPTVELEDGLKRMIEYFKNV | not soluble |
| VRMILDTIPKKNRHLVTTHDGYSYLGDAYGLSIAGFVSPNPSVEPSPRDIIALTRTLENLHVPAVFIEPQLALRANHLTVTADKLGIQVCRIYGDSLDDEVPTYLDFMKYNAHSLARCLGQSEGK | not soluble |
| MSRPPSRPRMMCARVLLLLSVTGLVLACETGPSSGDYEQAVMQDRVQRDMQMREKESVLPPGRREAFRGLNFYEVDPAYRYTVPLRRFETPDTVMIPESTGDLRPQQRIGEVTVPLPEGPEELVVFRGEGDTPRGRLWIPFADSTNRHATYKGGRYVDLTSTDSDSVVVDFNRAYNPTCAYNPDFACPLPPPENRIAVPVAAGEKRPTFGG | soluble |
| MTQFETERLILRPMTAADHDALADMIFDPQVVAYLRYRRVQSPAAFEQLFTTHFLADTTTVFGIERRRDHQLIGFYEFHGSGATGELTYALSPAAWGHGYVAEAGNCLMHYGFETLNYETIEAHYASANPNSGRVMAKMGMQAAGELHTFTSDKGEVIHVMRYLLTKATWRQLSA | not soluble |
| MNDEIISNLHMLSAVHRSLPRDARKDYLSRVRGKVEHLYKAIQGNKKPEINFEVSLEEAKLADKYLKDAKKVRIGNTMSDRDEYLGLLEIADNDERKCVFIHVSIGGIEEGCIVIQLFNDIVPRTAQNFESWCTGEKRGKYGEPLHLKECEIKMILPGSVIGFGDFEENCEYFDDEKSKENHCKNVLSMNIDKSENSSAPLFNMELSDGVDRAGKAIVFGKVVMGNRVIEKVLLAGSRDGIPEQTVKISDCGEMFRGGHSHF | not soluble |
| MVKPDWWIREMARKGMIEPFEERLVREGVISYGLSSFGYDLRAAPEWKIFTNVFSSLVDPKNFDPKSFVEYEGEEVVIPPNSFALTRSLEYIRMPDNVIAIALGKSTYARCGIVVNVTPLEPGWEGHVTLEISNTTPLPAKVYAGEGIVQLLFLEGPRPEVTYRDRKGKYQGQKGITLPRV | soluble |
| GGTKTAAEAAAPAVHPVSGLQIVPVTVTGTSGRHVFRSELARTSAEQAKGLMFRTELGDEEGMIFLRNPPDMATFWMRNTVIPLDIIFVGLDRRVMNIAANAVPYDETPLPAAGPTLAVLEINGGLAARLGIKPGDKVEW | soluble |
| MGSDKIHHHHHHMLAIEESQKLTLSNLPSLSLFTGTDQGQFEVMKSQMLKQIGYDSADLNFAYFDMKEVVYKDVELELVSLPFFADEKIVILDYFMDITTAKKRFLTDDELKSFEEYLDNPSPTTKLIIFAEGKLDSKRRLVKLLKRDAKAFDAVEVKEQELRQYFQKWSQKQGLQFTNHSFENLLIKSGFQFSEIQKNLLFLQSYKANSVIEEEDIVNAIPKTLQDNIFDLTQFILTKKMDQARDLVRDLTLQGEDEIKLIAVMLGQFRTFTQVKILAESGQTESQIASSLGSYLGRNPNPYQIKFALRDSRGLSLSFLKQAISYLIETDYQIKTGLYEKGFLFEKALLQIASQVN | not soluble |
| MRDLSHALGSGEPYPGDPPAAVTPHATMAADGYRVSAVACSTHSGTHIDAPSHLLADGRSLDAFDVSAFRFDAHVVDCTGYGPEDAIPVDRVPALDDHDMVVFNTGTAADWGRPEYYEHPHLSVAAAERCADAGCAVAVDAPSVDPTRTAPAGESSDAAAYPAHRALLGAGALIVENVTNLDGLPERVPVQAYPLPVAADGAPARVIAAPLEHHHHHH | soluble |
| MGLLVNGIWQDQWYDTESTGGRFVRHDSQFRHWITPDGSPGPTGHGGFKAEAGRYHLYVSLACPWAHRTLIFRKLKGLEGMIDVSVVHWLMRENGWTFAPGPGVMPDPLFNAEYLYQIYTRADAQYSGRVTVPILWDKQKQTIVNNESSEIIRIFNSAFDGLGAKSGDYYPKALRTQIDALNDRIYHTINNGVYKCGFATTQTAYEEAIAPLFESLDWLEGILQGHQYLTGDEITEADWRLFTTLIRFDVVYVGHFKCNLRRIQDYPNLWRYLRDLYHQPGIAETVNFQHIKGHYYESHLNINPTGIVPMGPALDLSLALEHHHHHH | not soluble |
| SLVNLKVNLLLVDYRGYGKSEGEASEEGLYLDSEAVLDYVMTRPDLDKTKIFLFGRSLGGAVAIHLASENSHRISAIMVENTFLSIPHMASTLFSFFPMRYLPLWCYKNKFLSYRKISQCRMPSLFISGLSDQLIPPVMMKQLYELSPSRTKRLAIFPDGTHNDTWQCQGYFTALEQFIKEVVKSHSPEEMAKTSSNVTII | soluble |
| MKILVIGGPTAIGKSDLACCVAQKLNGEIISADSMAVYKFMDIGTAKPLECMKKVPHHLIDVVEPGGYFDAKIFEEMAKEKIEEIKRKGKVPIVVGGTYLYIQALLYGIDETPKPDWNLRNKLYEIARKKGNDYLYEKLKAIDPKYAKKIHKNDLRRIVRALEVFINTGKPFSSFHSWNKPKMDFVGIYLKRSPESLYKRIENRVYDMVKDGLLEEVKKLLEMGYENFLTSGQAIDYKEFVPCAKGEKSLEECIKEAIKNTKKQAKRQIRWFRKQGWHEIDLDKLSIEEACEEVVRIYKDANKTKLEHHHHHH | not soluble |
| GPGSMTHNRSGAVRRKVVQHDFYDSADQVGGVVLLNNPTNGSWEYDEYLRLLTTKRYSRIPSWEAHSTAQCYFVCADGVYPKLQSYVKERQVSHPHLRLFQFFPLCDAVIGDMDSYVTSYEKDGCERPSSTPEGGYGTVDDIPVEVLDTIHHRCRSAAALFREVDGSVPDTPLNGWKMLHEEHSHPLLRPLWLHIQCQITTDFKKALTLLKRLRKRYPDENAVVLPPVLRSPGAARILETGGGVVDQRNCGCDNDPIQERELCVAASQVEALLLPTVVAVGAFGGRFDHEVGAISTMLSESHDAHIVLINLFNTVFACQGGGWTQIVRQPEYEDKTCGLVNYGRMTECETSGLLWNVVKGRGRPSVTNDFVFDFGAFISVCNIVRREVITVDLRCLLTSVGESPADATTATGASDCEAQRGRGPPVVFSILRRQKKEGG | not soluble |
| MSLDKPRLQFSIREQVQQLLGGLAGLKNYQVPSKETIADNAYLKQMGVALDVLTKEVEKLKSDDGVSAEAMGDYLYRQVQWVNNIVPTQMDLNRLFATMNTAGIQLEQADILKAKLFKHIHTDKAQYDAMWVACEHLENYFERNVRKVFPNADWYHIEPEHLASFDAERFAAKDETSEALSGLSIAELASQVKASSIPDNTEQEKFETYDLDVETVYCRPIIKFPLLLIHAYRVYLALNDHNDIEPRLHSDRLLEIFDPLINGDEQSVKLFIETLWQVRYQFDRWVVKWVERDDATDAQLGLTYQSRSKSNDTYYINRTQKELTDIVLLQSVRNFTGERSAQYWLTPFLSGLIRSSIKQDSVALELLENIDNKMSLSVDTQKEASFALAEGIEPNCQSWQSQSTYFAKSLGTSFEHYWFQKLEYLIWKKMKASESSLPSEELNKFKKYRITSKNSVEHVHPQNDEYNSRLDCETLNSFGNLVLLSPGENSSYSNQDVDKKRIDFERKSHFDALKLREIFGVKGQGLWGKQQIDNHLEDMMAVFAQHYKEGHHHHHH | soluble |
| MTGPVTRADPTPGLRTGRRPGNPDTRSRILAAARKLFAQNGFDKTSVRSVATGAGVDSALIHHYFGTKRELFLASVDIPVDPTQVIAPVLDIPTGEVGSHLARAVFSVWESPHKPAVVAAFRSAMAGNEPNLIRTFLLEVVLRDLGPRVDEPPGTGMLRMQLVASQMAGVLVTRYILEFEPLASLPVDDLVAIVGPTLQRYLTGALP | not soluble |
